Molecular target: the molecule itself
Test: crystal structure; apo FnNanK at 14 mg/ml; sitting-drop vapour diffusion, 293 K; 0.2 M lithium sulfate, 0.1 M Tris-HCl pH 8.5, 30% PEG 4000; 2.23 A; one homodimer in the asymmetric unit

B1: Fusobacterium nucleatum N-acetylmannosamine kinase (enzyme, F. nucleatum)
chain: ITSLYKKAGFMNILAIDIGGTMIKYGLVSFDGKILSTDKIKTEASKGLNNILNKIDNIFKRYKENNPVGIAVSGTGQINGMIGKVIGGNPIIPNWIGTNLVKILEEKYNLPIVLENDVNCVALGEKWVGAGKDLSNFICLTIGTGIGGGILLNNQLFRGENFVAGEFGHILIKKGEFEQFASTTALIRLVKERTGKTLNGKEIFDLEKKEILEYQEIISEWIENLTDGLSSIIYCFNPANIILGGGVIEQGEPLINRIKNSLFKKIGPQFKEKLNITQAKLGNNAGMIGASYLLLEKINKR
notes: N-acetylmannosamine kinase (NanK; EC 2.7.1.60) of Fusobacterium nucleatum, synthetic gene; primers run from the start codon to the stop codon; The tag was not removed; also called FnNanK; F. nucleatum NanK; source: E. coli BL21(DE3), purified (HisTrap FF, Superdex 200 size-exclusion); not shown: His6, N-terminal, kept
  stoichiometry N: 2

Source: article PMC5458393, “Crystal structure of N-acetylmannosamine kinase from Fusobacterium nucleatum” (Acta Crystallographica. Section F, Structural Biology …, 2017)
